Test results taken from the Human Domainome abundance scans (Beltran et al. 2025).

B1: Dynamin-binding protein, residues 146 to 206; numbered along this chain, Q6XZF7 (parent)
chain: SMGQARALMGLSAQLDEELDFREGDVITIIGVPEPGWFEGELEGRRGIFPEGFVELLGPLR
B2: CD2-associated protein, residues 109 to 169; numbered along this chain, Q9Y5K6 (parent)
chain: KKRQCKVLFEYIPQNEDELELKVGDIIDINEEVEEGWWSGTLNNKLGLFPSNFVKELEVTD

Variants of: B1
Experiment: abundance fitness (aPCA) (normalised: wild type 0, dead -1); higher = more abundant; growth selection in yeast, the domain comes from the species named
Details: Homo sapiens

Abundance fitness, by site and new letter:
L60: G -0.176, P -0.368, A -0.387, M -0.062, Y -0.862
E43: L -0.527, D 0.089, M 0.06, W -0.747
V54: E -0.81, K -0.671, N -0.674, I -0.947, G -0.708
E39: R -0.141, S -0.339
L56: R -0.399, V -0.152, I -0.42
G58: T -0.079, Q -0.013, E 0.082, H -0.23
G31: K -0.085, Y -0.975, P -0.121, W -0.955, T -0.717
P33: G -0.469, L -0.615, H -0.27, Y -0.587, C -0.792, D -1.11, K -0.215, T -0.386, A -0.971, N -1.07, S -0.65, W -0.711, I -0.494, V -0.435, F -0.693, R -0.155
L57: R -0.43, V -0.24, Y -0.578, D -0.429, K -0.585, N -0.375, M -0.251, H -0.629, I -0.176, P -0.655, W -1.03, Q -0.258, A -0.57, E -0.695, T -0.437
I30: C -0.599, Y -0.286, M -0.481, L -0.085, R -0.284, K -0.129, A -0.374
G52: R 0.117, W -0.053, E -0.189, Y -0.064, I 0.04, H 0.404, T -0.083, L -0.29, A 0.111, M 0.046
I29: F -0.924, Q -0.082, N -0.461, P -0.595, Y -0.997, A -0.665
F49: W -1.1, K -0.655, D -0.74
G36: K -0.347, E -0.958, D -0.824, L -0.831, M -0.584, R -0.709, Q -0.797
G40: K -0.906, E -0.685, L -0.762, F -0.901, P -0.502, Y -0.604, Q -0.974
P50: R -0.068, C -0.93, G -0.621, Y -0.794, A -0.736, Q -0.314, S -0.674, N -0.371, I -0.691, D -0.797, K -0.212, F -0.669, M -0.38, H -0.333, V -1.02, E -0.509, L -0.655
R45: G -0.961, W -0.958
D25: F -0.518, M -0.724, K -1.03
I27: K -0.73, D -0.694, E -0.773, S -0.753, G -0.627
R46: C -0.303, Y -0.698, Q -0.571
E55: K -0.253, N -0.939
R61: D -0.053, N -0.054, S -0.017, L 0.336, K 0.47, T -0.046, I -0.135, P 0.123, H -0.153, C -0.234, E -0.018, G -0.123, Y -0.148, V 0.019, F -0.363
W37: G -0.652, M -0.019, H -0.326, S -0.62
G24: V -0.701, Q -0.733, Y -0.729, P -0.749, T -0.818, W -0.891, H -0.679, R -0.778, N -0.253, I -0.897, F -0.82
G44: V -0.884, Q -0.683, H -0.665
V32: N -0.232, C -0.12, F -0.446, K -0.349, P -1.04, Q 0.189, G -0.599
G47: L -0.696, I -1.06, K -0.839, D -0.804, V -0.719, E -0.962, Q -0.861
I48: P -0.651, V -0.007, A -0.777, R 0.012, G -1.01
E51: N -0.66, Q -0.074, S -0.053, F -0.621, P -0.792
F38: K -0.503, H -1.08, Q -1.12, W -0.667, P -0.994
F53: E -0.486, Y 0.059
E34: I -0.055, A -0.42, S -0.129, R 0.025, G -0.379, L -0.611, Q -0.364, M -0.398
P35: N -0.471, A -0.116, S -0.292, G -0.743, R -0.309, F -0.717, C -0.363, V -0.202, I -0.642, W -0.926, M -0.473, T -0.064, D -0.062, E -0.018, Q -0.203
L42: P -0.5, D -0.975, K -0.316, T -0.769
E41: S -0.806, Q -0.267, M -0.211, W -0.773, A -0.32, F -0.6, N -0.608, V -0.148, I -0.073
T28: W -0.809, C -0.941, S 0.011, E 0.016
V26: S -0.704, L 0.043, Q -0.532, C -0.45, T -0.319, Y -0.416, K -0.311, E -0.27, R -0.353, P -0.64, G -0.687, N -0.594, F -0.464, W -0.554, M -0.154, H -0.279
P59: M -0.386, K -0.889, T -0.685

Variants of: B2
Experiment: as above
Details: Homo sapiens

Abundance fitness: each site, then its substitutions
Q4: Y 0.503, E -0.539, S 0.134, L 0.271, V 0.118, W -0.117, R 0.209
R3: D -0.283, C -0.38, Q -0.963, V -0.316, H -0.122, E -0.401, S -0.364, Y -0.58, G -0.21, A -0.664, N -0.388, M -0.228, F -0.451, T -0.109, P -0.572, K -0.33, W -0.372, L -0.178, I -0.409
K2: P -0.293, G -0.007, N -0.227, T -0.423, F -0.51, S -0.754, A -0.197, Y -0.183, R -0.334, M 0.011, E 0.145
K1: R -0.181, S -0.249, F -0.351, N 0.265, Y -0.172, G -0.122, Q -0.316, I -0.241, C -0.232, D 0.195, V -0.367, M -0.184, T 0.113
K6: R 0.122, I 0.309, N -0.472, E -0.06, L 0.255, A 0.112, Q 0.191, C 0.088, H -0.02, M 0.151, P -0.761, F -0.042
C5: I -0.656, Q -0.024, W -0.743, R -0.547, E -0.688, M -0.419, K -0.632, P -0.945, D -0.626, Y -0.097, N -0.596, A 0.335, G 0.235, F -0.367, H -1.01, V 0.23, S -0.353, L -0.445
